Target: CD70 (human) (UniProt P32970)
Assay: cell-based or functional assay

CD70 (human), sequence (P32970 whole entry): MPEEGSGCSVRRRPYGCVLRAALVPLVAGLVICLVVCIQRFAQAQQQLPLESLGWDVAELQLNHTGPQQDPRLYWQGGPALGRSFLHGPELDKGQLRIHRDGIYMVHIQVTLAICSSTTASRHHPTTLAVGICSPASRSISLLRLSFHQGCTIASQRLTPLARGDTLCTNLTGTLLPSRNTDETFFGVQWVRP

## anti-CD70 monoclonal antibody (HNE51) (DAKO)
  IgG synthesis by purified B cells stimulated with LPS (control without T cells): 125 µg/mL
